Results from patent US20260184748A1 (University of Pennsylvania, published 2026).
Where no end group is shown, it is not given here.

Key:
Assay in all cases: cell-based or functional assay
TACR3 = molecular target: T1, TACR3 (UniProt P29371 1-465)
T1 sequence (looked up): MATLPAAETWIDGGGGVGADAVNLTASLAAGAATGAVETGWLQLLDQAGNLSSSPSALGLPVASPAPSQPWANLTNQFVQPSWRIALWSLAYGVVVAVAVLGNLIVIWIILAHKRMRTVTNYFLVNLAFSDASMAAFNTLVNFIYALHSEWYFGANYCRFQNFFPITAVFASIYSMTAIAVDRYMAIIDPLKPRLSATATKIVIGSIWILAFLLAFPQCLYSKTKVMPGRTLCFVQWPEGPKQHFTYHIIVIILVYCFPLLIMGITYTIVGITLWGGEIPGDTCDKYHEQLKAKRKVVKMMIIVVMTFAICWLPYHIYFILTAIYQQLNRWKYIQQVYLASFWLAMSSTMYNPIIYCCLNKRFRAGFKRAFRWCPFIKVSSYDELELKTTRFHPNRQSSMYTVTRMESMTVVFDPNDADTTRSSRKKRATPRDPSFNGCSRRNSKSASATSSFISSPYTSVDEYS

HCRTR1 = molecular target: T2, HCRTR1 (UniProt O43613 1-425)
T2 sequence (looked up): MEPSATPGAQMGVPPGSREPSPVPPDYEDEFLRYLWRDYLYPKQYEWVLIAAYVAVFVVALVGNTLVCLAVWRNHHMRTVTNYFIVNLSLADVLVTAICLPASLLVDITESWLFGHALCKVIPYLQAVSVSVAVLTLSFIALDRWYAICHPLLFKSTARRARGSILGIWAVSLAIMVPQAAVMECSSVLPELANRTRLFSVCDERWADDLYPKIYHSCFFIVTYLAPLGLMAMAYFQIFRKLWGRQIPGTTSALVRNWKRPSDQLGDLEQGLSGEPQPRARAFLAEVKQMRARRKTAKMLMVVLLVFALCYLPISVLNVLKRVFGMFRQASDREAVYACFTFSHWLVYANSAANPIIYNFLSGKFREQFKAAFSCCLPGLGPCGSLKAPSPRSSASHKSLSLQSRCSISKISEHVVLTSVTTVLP

HTR5A = HTR5A (UniProt P47898 1-357)
DRD1 = DRD1 (UniProt P21728 1-446)
NPY1R = molecular target: T3, NPY1R (UniProt P25929 1-384)
T3 sequence (looked up): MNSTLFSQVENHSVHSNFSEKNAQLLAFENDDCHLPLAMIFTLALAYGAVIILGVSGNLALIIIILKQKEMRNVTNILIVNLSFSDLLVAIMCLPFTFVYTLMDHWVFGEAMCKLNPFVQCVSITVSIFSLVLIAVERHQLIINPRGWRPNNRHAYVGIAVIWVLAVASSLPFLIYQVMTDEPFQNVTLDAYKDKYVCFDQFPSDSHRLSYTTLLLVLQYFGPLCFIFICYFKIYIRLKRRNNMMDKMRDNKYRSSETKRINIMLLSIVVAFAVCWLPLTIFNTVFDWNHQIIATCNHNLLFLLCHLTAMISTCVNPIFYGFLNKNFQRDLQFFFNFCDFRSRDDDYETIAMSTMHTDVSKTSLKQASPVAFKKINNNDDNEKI

ADRA2C = molecular target: T4, ADRA2C (UniProt P18825 1-462)
T4 sequence (looked up): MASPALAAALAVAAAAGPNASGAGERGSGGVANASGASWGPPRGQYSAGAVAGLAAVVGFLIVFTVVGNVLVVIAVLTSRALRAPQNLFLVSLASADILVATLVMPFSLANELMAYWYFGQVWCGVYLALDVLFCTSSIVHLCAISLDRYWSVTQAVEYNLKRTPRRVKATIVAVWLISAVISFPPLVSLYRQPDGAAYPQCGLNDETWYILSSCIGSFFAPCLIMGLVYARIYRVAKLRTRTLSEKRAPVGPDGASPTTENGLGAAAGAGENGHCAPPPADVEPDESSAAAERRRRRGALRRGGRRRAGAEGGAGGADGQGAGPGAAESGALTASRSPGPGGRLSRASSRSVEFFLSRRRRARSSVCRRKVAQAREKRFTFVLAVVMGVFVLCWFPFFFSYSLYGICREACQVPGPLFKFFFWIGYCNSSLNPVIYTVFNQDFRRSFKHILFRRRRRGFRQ

CNR2 = CNR2 (UniProt P34972 1-360)
ADORA3 = molecular target: T5, ADORA3 (UniProt P0DMS8 1-318)
T5 sequence (looked up): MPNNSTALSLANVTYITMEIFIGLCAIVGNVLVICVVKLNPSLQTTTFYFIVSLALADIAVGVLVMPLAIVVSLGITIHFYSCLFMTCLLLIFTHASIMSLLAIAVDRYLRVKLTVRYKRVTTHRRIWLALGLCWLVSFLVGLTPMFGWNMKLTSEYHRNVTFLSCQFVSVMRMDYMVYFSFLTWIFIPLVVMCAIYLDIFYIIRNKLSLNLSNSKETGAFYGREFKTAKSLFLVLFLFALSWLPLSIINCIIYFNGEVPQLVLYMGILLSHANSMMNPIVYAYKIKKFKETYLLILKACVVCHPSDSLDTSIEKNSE

CXCR3 = molecular target: T6, CXCR3 (UniProt P49682 1-368)
T6 sequence (looked up): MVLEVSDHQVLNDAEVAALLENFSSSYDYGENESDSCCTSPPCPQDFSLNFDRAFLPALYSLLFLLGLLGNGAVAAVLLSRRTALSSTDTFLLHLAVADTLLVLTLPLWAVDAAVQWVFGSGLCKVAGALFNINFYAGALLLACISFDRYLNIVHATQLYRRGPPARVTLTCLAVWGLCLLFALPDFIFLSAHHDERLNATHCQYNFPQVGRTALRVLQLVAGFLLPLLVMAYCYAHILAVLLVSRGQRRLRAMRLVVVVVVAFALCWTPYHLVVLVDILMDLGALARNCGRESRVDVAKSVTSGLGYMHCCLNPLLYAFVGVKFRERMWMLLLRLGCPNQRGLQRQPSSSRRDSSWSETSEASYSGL

MCHR1 = MCHR1 (UniProt Q99705 1-353)
NPBWR2 = NPBWR2 (UniProt P48146 1-333)
EDG1 = EDG1 (UniProt P21453 1-382)
Chain of EDG1 (P21453 whole entry): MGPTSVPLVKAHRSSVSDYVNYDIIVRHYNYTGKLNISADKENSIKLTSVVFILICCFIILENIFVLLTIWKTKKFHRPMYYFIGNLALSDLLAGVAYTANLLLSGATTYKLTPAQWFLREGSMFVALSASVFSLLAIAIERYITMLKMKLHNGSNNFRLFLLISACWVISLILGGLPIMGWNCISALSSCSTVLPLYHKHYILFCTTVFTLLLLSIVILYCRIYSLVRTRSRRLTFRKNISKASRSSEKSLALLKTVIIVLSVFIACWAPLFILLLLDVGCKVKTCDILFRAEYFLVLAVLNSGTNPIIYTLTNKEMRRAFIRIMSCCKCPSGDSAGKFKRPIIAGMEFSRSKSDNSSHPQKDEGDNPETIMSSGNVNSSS

Chain of NPBWR2 (P48146 whole entry): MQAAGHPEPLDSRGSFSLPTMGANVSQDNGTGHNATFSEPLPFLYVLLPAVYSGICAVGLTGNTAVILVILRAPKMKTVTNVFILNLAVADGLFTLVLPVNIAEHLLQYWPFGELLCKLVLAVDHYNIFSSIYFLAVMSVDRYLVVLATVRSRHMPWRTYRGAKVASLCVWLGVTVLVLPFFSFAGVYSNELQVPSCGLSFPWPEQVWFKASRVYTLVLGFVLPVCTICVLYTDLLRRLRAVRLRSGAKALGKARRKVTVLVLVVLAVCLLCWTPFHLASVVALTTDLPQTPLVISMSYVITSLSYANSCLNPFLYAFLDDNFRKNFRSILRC
Chain of DRD1 (P21728 whole entry): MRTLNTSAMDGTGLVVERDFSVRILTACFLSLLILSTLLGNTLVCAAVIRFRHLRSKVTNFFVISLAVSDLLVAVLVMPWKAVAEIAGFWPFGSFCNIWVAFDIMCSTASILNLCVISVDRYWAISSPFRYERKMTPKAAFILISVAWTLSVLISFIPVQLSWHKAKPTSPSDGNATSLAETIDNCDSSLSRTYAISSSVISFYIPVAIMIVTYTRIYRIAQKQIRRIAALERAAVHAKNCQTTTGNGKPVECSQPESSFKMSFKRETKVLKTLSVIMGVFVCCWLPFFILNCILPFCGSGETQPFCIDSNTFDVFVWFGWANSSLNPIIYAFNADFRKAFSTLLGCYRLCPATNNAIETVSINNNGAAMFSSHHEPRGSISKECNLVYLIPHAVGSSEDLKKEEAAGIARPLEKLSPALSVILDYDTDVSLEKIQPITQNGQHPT
Chain of CNR2 (P34972 whole entry): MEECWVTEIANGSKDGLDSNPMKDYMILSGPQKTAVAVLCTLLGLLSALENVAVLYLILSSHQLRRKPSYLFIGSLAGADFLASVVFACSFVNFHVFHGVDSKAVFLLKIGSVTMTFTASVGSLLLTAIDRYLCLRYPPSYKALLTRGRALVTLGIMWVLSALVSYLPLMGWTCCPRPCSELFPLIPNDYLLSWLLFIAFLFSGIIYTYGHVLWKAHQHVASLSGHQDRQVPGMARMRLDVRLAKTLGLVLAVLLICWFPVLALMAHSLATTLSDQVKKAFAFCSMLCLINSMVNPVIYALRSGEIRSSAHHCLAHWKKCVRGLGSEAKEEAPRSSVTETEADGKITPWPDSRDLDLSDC
Chain of MCHR1 (Q99705 whole entry): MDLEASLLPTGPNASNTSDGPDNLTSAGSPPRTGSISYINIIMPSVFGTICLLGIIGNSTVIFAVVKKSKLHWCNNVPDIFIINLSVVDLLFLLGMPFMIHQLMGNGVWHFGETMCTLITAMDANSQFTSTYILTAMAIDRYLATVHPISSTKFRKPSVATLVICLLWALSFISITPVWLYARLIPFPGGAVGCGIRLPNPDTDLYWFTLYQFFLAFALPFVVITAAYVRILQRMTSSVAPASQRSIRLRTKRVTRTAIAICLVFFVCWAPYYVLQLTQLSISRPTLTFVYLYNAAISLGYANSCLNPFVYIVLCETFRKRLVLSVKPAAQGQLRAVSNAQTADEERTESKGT
Chain of HTR5A (P47898 whole entry): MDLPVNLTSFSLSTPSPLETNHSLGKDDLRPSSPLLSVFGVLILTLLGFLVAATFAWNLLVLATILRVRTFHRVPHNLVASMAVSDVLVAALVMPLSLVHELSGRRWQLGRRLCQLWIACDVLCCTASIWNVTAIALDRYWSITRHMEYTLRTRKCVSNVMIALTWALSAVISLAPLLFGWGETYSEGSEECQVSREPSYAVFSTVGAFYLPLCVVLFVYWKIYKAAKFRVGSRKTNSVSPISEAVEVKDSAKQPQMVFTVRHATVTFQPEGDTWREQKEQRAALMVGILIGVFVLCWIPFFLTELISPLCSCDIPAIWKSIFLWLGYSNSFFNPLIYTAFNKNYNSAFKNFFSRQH

B1: octadecaneuropeptide (ODN) (peptide)
peptide: QATVGDVNTDRPGLLDLK
modifications: also: synthesised on Rink amide resin, C-terminal amide not given here outright
% Activity, arrestin, antagonist mode, 2.5 uM (TACR3): -5.8%
% Activity, arrestin, antagonist mode, 2.5 uM (HCRTR1): -1.7%
% Activity, arrestin, antagonist mode, 2.5 uM (HTR5A): -0.3%
% Activity, arrestin, antagonist mode, 2.5 uM (DRD1): 5.7%
% Activity, arrestin, antagonist mode, 2.5 uM (NPY1R): -2.7%
% Activity, arrestin, antagonist mode, 2.5 uM (ADRA2C): -26.4%
% Activity, arrestin, antagonist mode, 2.5 uM (CNR2): 3.6%
% Activity, arrestin, antagonist mode, 2.5 uM (ADORA3): 0.5%
% Activity, arrestin, antagonist mode, 2.5 uM (CXCR3): -7.5%
% Activity, arrestin, antagonist mode, 2.5 uM (MCHR1): 5.1%
% Activity, arrestin, antagonist mode, 2.5 uM (NPBWR2): -1.1%
% Activity, arrestin, antagonist mode, 2.5 uM (EDG1): -25.9%
